Laboratory results from article PMC2957469.

Key:
[1] = target: JCV VP1 pentamer (amino acids 22-289) A126Q, His-tagged (JC polyomavirus (JCV), Mad-1 strain); assay: SEC
[2] = target: JCV VP1 pentamer (amino acids 22-289) S266A/S268A, His-tagged (JC polyomavirus (JCV), Mad-1 strain); assay: SEC
[3] = target: JCV VP1 pentamer (amino acids 22-289) L54Y, His-tagged (JC polyomavirus (JCV), Mad-1 strain); assay: SEC
[4] = target: JCV VP1 pentamer (amino acids 22-289) R265A, His-tagged (JC polyomavirus (JCV), Mad-1 strain); assay: SEC
[5] = target: JCV VP1 pentamer (amino acids 22-289) S266N/S268N, His-tagged (JC polyomavirus (JCV), Mad-1 strain); assay: SEC
[6] = target: JCV VP1 pentamer (amino acids 22-289) A126Y, His-tagged (JC polyomavirus (JCV), Mad-1 strain); assay: SEC
[7] = target: JCV VP1 pentamer (amino acids 22-289, Mad-1 strain), His-tag removed, as crystallized (JC polyomavirus (JCV), Mad-1 strain); assay: crystal structure
[8] = target: JCV VP1 pentamer (amino acids 22-289) N123A, His-tagged (JC polyomavirus (JCV), Mad-1 strain); assay: SEC
[9] = target: JCV VP1 pentamer (amino acids 22-289, Mad-1 strain), His-tagged, wild type (JC polyomavirus (JCV), Mad-1 strain); assay: SEC

JCV VP1 pentamer (amino acids 22-289) A126Q, His-tagged (domain or fragment)
stoichiometry N [1]: 5

JCV VP1 pentamer (amino acids 22-289) S266A/S268A, His-tagged (domain or fragment)
stoichiometry N [2]: 5

JCV VP1 pentamer (amino acids 22-289) L54Y, His-tagged (domain or fragment)
stoichiometry N [3]: 5

JCV VP1 pentamer (amino acids 22-289) R265A, His-tagged (domain or fragment)
stoichiometry N [4]: 5

JCV VP1 pentamer (amino acids 22-289) S266N/S268N, His-tagged (domain or fragment)
stoichiometry N [5]: 5

JCV VP1 pentamer (amino acids 22-289) A126Y, His-tagged (domain or fragment)
stoichiometry N [6]: 5

JCV VP1 pentamer (amino acids 22-289, Mad-1 strain), His-tag removed, as crystallized (domain or fragment)
stoichiometry N [7]: 5

JCV VP1 pentamer (amino acids 22-289) N123A, His-tagged (domain or fragment)
stoichiometry N [8]: 5

JCV VP1 pentamer (amino acids 22-289, Mad-1 strain), His-tagged, wild type (domain or fragment)
stoichiometry N [9]: 5
